According to patent US20130295090A1 (US Dept. of Health and Human Services, published 2013):
Where two headings read alike, the source gives them in different places.

Key:
[1] = target: T1, JEV strain SA14-14-2 envelope (E) protein on virions (Japanese encephalitis virus strain …, UniProt P0DOH7 295-794)
[2] = target: T1, JEV strain SA14-14-2 envelope (E) …; assay: cell-based or functional assay
[3] = target: T1, JEV strain SA14-14-2 envelope (E) …; assay: ELISA on JEV virions, half maximum binding (FIG. 4A)
[4] = target: T1, JEV strain SA14-14-2 envelope (E) …; assay: ELISA, virion-coated plate; initial Fab ~100 µg/ml
[5] = target: T1, JEV strain SA14-14-2 envelope (E) …; assay: ELISA on JEV SA14-14-2 virions captured with HMAF
[6] = target: T2, recombinant JEV N-terminal 80% E protein (Japanese encephalitis virus strain …, UniProt P0DOH7 295-692); assay: SPR (Biacore 3000), recombinant E immobilized, Fab in solution
[7] = target: T1, JEV strain SA14-14-2 envelope (E) …; assay: ELISA on JEV virions captured with HMAF, half-maximal binding, Fab
[8] = target: T1, JEV strain SA14-14-2 envelope (E) …; assay: cell-based or functional assay; remark: listed apart in the source
[9] = target: T1, JEV strain SA14-14-2 envelope (E) …; assay: cell-based or functional assay; remark: listed apart in the source
[10] = target: E protein of wild type JEV strain JE 1991 (genotype I) (Japanese encephalitis virus strain JE …); assay: cell-based or functional assay
[11] = target: E protein of wild type JEV strain JE B1034/8 (genotype II) (Japanese encephalitis virus strain JE …); assay: cell-based or functional assay
[12] = target: E protein of wild type JEV strain Beijing (genotype III) (Japanese encephalitis virus strain …); assay: cell-based or functional assay
[13] = target: E protein of wild type JEV strain JKT 9092 (genotype IV) (Japanese encephalitis virus strain JKT …); assay: cell-based or functional assay
[14] = target: T1, JEV strain SA14-14-2 envelope (E) …; assay: cell-based or functional assay; remark: listed apart in the source
[15] = target: T1, JEV strain SA14-14-2 envelope (E) …; remark: listed apart in the source
[16] = target: T1, JEV strain SA14-14-2 envelope (E) …; assay: ELISA on JEV virions captured with HMAF, half-maximal binding, MAb
[17] = target: T1, JEV strain SA14-14-2 envelope (E) …; remark: listed apart in the source
[18] = target: T2, recombinant JEV N-terminal 80% E protein; assay: SPR, recombinant E immobilized

Binder | PRNT50 titer [2] [nM] | EC50 [3] [nM] | ELISA titer (1/log10 dilution) [4] [log10 reciprocal dilution] | EC50 (read off the curve) [5] [nM] | Kd [6] [nM] | koff [6] [s⁻¹] | kon [6] [M⁻¹ s⁻¹] | Kd [7] [nM] | occupancy of accessible antibody sites on the virion for neutralization [8] [%] | PRNT50 titer [9] [nM] | PRNT50 titer [10] [nM] | PRNT50 titer [11] [nM] | PRNT50 titer [12] [nM] | PRNT50 titer [13] [nM] | PRNT50 [14] [µg/mL] | other results
Fab A3 (Fab, V domains shown) VH: EVQLLESGAEVKKPGSSVRISCKVSGTPYSSYVMNWVRQAPGQGLEWMGVFVPSLDRALYAQNFQGRLSITADTTTTYMELTSLKFEDTAVYYCATDFSVGWLRPLDRWGQGTLVTVSS VL: ELQMTQSPSSLSASVGDRVTITCRASQGISNYLAWYQQKPGKAPKLLIYYASRLESGVPSRFSGSGSGTDYTLTISSLQPEDFATYYCQQYNSNPFTFGPGTKVDIKR | 2.55 | 0.45 | 4.7 | ~0.5 | 0.72 | 2.8e-05 | 40000 | 0.45 | – | – | – | – | – | – | – | IC50 (read off the curve) [1]: ~6 nM
humanized MAb A3 (antibody, V domains shown) VH: EVQLLESGAEVKKPGSSVRISCKVSGTPYSSYVMNWVRQAPGQGLEWMGVFVPSLDRALYAQNFQGRLSITADTTTTYMELTSLKFEDTAVYYCATDFSVGWLRPLDRWGQGTLVTVSS VL: ELQMTQSPSSLSASVGDRVTITCRASQGISNYLAWYQQKPGKAPKLLIYYASRLESGVPSRFSGSGSGTDYTLTISSLQPEDFATYYCQQYNSNPFTFGPGTKVDIKR | – | – | – | – | – | – | – | – | 45 | 0.2 | 0.04 | 0.04 | 0.2 | 0.07 | 0.04 | –
Fab E3 (Fab, V domains shown) VH: EVQLLESGPGLVRPSQTLSLTCAVSGASISGPLSYWTWIRQSPGKKMEHIGSMFYSGNTYYNPSLKGRITMSVDTSRNQFSLNLNSVTVADTAVYFCARRRETELFGLPIDYWGQGILVTVSS VL: ELTQSPATLSVSPGERATLSCRASERISSSYLSWYQQKPGQAPRLLMYGTSTRATGIPARFSGSGSGTDFTLTISSLQPEDFAVYFCQQDYNLPWTFGQGTKLEIKR | 84.9 | 0.98 | 4.2 | ~1 | 0.35 | 3.6e-05 | 100000 | 0.98 | – | – | – | – | – | – | – | IC50 (read off the curve) [15]: ~7 nM
humanized MAb E3 (antibody, V domains shown) VH: EVQLLESGPGLVRPSQTLSLTCAVSGASISGPLSYWTWIRQSPGKKMEHIGSMFYSGNTYYNPSLKGRITMSVDTSRNQFSLNLNSVTVADTAVYFCARRRETELFGLPIDYWGQGILVTVSS VL: ELTQSPATLSVSPGERATLSCRASERISSSYLSWYQQKPGQAPRLLMYGTSTRATGIPARFSGSGSGTDFTLTISSLQPEDFAVYFCQQDYNLPWTFGQGTKLEIKR | – | – | – | – | – | – | – | – | 66 | 0.93 | 0.21 | 0.14 | 0.71 | 0.36 | 0.09 | Kd [16]: 0.31 nM
humanized MAb B2 (antibody, V domains shown) VH: VQLLEQSGSEVKKPGASVKVSCKASGYPFTDYAMSWVRQAPGQGLEYMGWIFTNSGNPTYAPGFAGRFVFSLDISVNTAYLHIDSLKPEDTAVYYCARGIVTPAASGDYFDSWGQGTLVTVSS VL: ELVLTQSPSSLSASIGDRVTITCRASQHISSWLAWYQQKPGKAPKPLIYAASSLKSGVPSRFSGSGSGTDFTLTISGLQPEDFATYYCQQYENSPVTFGGGTKVEIKR | – | – | – | – | – | – | – | – | ~28 | 0.03 | 0.02 | 0.02 | 0.02 | 2 | 0.005 | –
Fab B2 (Fab, V domains shown) VH: VQLLEQSGSEVKKPGASVKVSCKASGYPFTDYAMSWVRQAPGQGLEYMGWIFTNSGNPTYAPGFAGRFVFSLDISVNTAYLHIDSLKPEDTAVYYCARGIVTPAASGDYFDSWGQGTLVTVSS VL: ELVLTQSPSSLSASIGDRVTITCRASQHISSWLAWYQQKPGKAPKPLIYAASSLKSGVPSRFSGSGSGTDFTLTISGLQPEDFATYYCQQYENSPVTFGGGTKVEIKR | 0.25 | 0.28 | 4.2 | ~0.2 | 110 | 0.0046 | 42000 | 0.28 | – | – | – | – | – | – | – | IC50 (read off the curve) [17]: ~5 nM; fold faster off-rate than Fab A3 or E3 [18]: ≥ 120 fold; fold weaker Kd than Fab A3 or E3 [18]: ≥ 150 fold
